# B1: full length NMT1 protein (Homo sapiens) (protein)
# chain: MADESETAVKPPAPPLPQMMEGNGNGHEHCSDCENEEDNSYNRGGLSPANDTGAKKKKKKQKKKKEKGSETDSAQDQPVKMNSLPAERIQEIQKAIELFSVGQGPAKTMEEASKRSYQFWDTQPVPKLGEVVNTHGPVEPDKDNIRQEPYTLPQGFTWDALDLGDRGVLKELYTLLNENYVEDDDNMFRFDYSPEFLLWALRPPGWLPQWHCGVRVVSSRKLVGFISAIPANIHIYDTEKKMVEINFLCVHKKLRSKRVAPVLIREITRRVHLEGIFQAVYTAGVVLPKPVGTCRYWHRSLNPRKLIEVKFSHLSRNMTMQRTMKLYRLPETPKTAGLRPMETKDIPVVHQLLTRYLKQFHLTPVMSQEEVEHWFYPQENIIDTFVVENANGEVTDFLSFYTLPSTIMNHPTHKSLKAAYSFYNVHTQTPLLDLMSDALVLAKMKGFDVFNALDLMENKTFLEKLKFGIGDGNLQYYLYNWKCPSMGAEKVGLVLQ
# notes: Km and Vmax catalyzed by full length NMT1 protein were calculated
# Legend:
# Experiment in all cases: NMT1 activity assay (CoA release, fluorescence);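 note: released CoA from NMT1-catalysed myristoylation of octapeptide substrates detected by fluorescence after reaction with a maleimide coumarin dye (excitation 390 nm, emission 479 nm), triplicate points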
# Type in all cases: biochemical
# Settings in all cases: other: octapeptide as NMT1 substrate; full length NMT1
# [1] = substrate: CC[C@H](C)[C@H](NC(=O)CNC(=O)[C@H](CCCNC(=N)N)NC(=O)[C@@H](NC(=O)[C@@H](NC(=O)[C@H](CC(C)C)NC(=O)[C@H](C)NC(=O)CN)C(C)C)[C@@H](C)CC)C(=O)O
# Protocol: (§1) The amount of the released CoA were reacted with 7-diethylamino-3-(4′-maleimidylphenyl)-4-methylcoumarin. The assay was performed in 96-well black microplates. The produced fluorescence intensity was measured by Flex Station 3, and detected by microplate reader (excitation at 390 nm; emission at 479 nm).
# (§2) The amount of the released CoA were reacted with 7-diethylamino-3-(4′-maleimidylphenyl)-4-methylcoumarin. The assay was performed in 96-well black microplates. The produced fluorescence intensity was measured by Flex Station 3, and detected by microplate reader (excitation at 390 nm; emission at 479 nm). To measure the Km and Vmax of NMT1 which catalyzed various octapeptides substrates derived from various proteins, twenty-five octapeptides were synthesized by GenScript. […] Each data point has three repeats.
# (§3) Km and Vmax catalyzed by full length NMT1 protein were calculated.
# [2] = substrate: N=C(N)NCCC[C@H](NC(=O)[C@H](CS)NC(=O)CN)C(=O)N[C@@H](CCC(N)=O)C(=O)N[C@@H](CO)C(=O)N[C@@H](CO)C(=O)N[C@@H](CCC(=O)O)C(=O)N[C@@H](CCC(=O)O)C(=O)O
# Protocol: as §1, §2, §3
# [3] = substrate: CC[C@H](C)[C@H](NC(=O)[C@H](CS)NC(=O)CN)C(=O)N[C@@H](CCCCN)C(=O)N[C@@H](CO)C(=O)N[C@@H](CCCCN)C(=O)NCC(=O)N[C@@H](CCCCN)C(=O)O
# Protocol: as §1, §2, §3
# [4] = substrate: CC(C)C[C@H](NC(=O)[C@H](CCC(N)=O)NC(=O)[C@H](CCC(N)=O)NC(=O)[C@H](CO)NC(=O)[C@H](C)NC(=O)[C@H](CCCCN)NC(=O)[C@H](CCC(N)=O)NC(=O)CN)C(=O)O
# Protocol: as §1, §2, §3
# [5] = substrate: CC[C@H](C)[C@H](NC(=O)[C@H](CS)NC(=O)CN)C(=O)N[C@@H](CCCCN)C(=O)N[C@@H](CO)C(=O)N[C@@H](CCCCN)C(=O)N[C@@H](CCC(=O)O)C(=O)N[C@@H](CC(N)=O)C(=O)O
# Protocol: as §1, §2, §3
# [6] = substrate: C[C@H](NC(=O)[C@@H](NC(=O)[C@H](CCCCN)NC(=O)[C@H](CO)NC(=O)[C@H](Cc1ccccc1)NC(=O)[C@H](CCC(N)=O)NC(=O)[C@H](C)NC(=O)CN)[C@@H](C)O)C(=O)O
# Protocol: as §1, §2, §3
# [7] = substrate: C[C@H](NC(=O)[C@H](CC(N)=O)NC(=O)CN)C(=O)N[C@@H](CCC(N)=O)C(=O)N[C@@H](CCC(=O)O)C(=O)N[C@@H](CCCNC(=N)N)C(=O)N1CCC[C@H]1C(=O)N[C@@H](CO)C(=O)O
# Protocol: as §1, §2, §3
# [8] = substrate: N=C(N)NCCC[C@H](NC(=O)[C@H](Cc1ccc(O)cc1)NC(=O)[C@H](Cc1c[nH]cn1)NC(=O)[C@H](CCCNC(=N)N)NC(=O)[C@H](CO)NC(=O)[C@H](CCC(=O)O)NC(=O)[C@H](CCCNC(=N)N)NC(=O)CN)C(=O)O
# Protocol: as §1, §2, §3
# [9] = substrate: CC(C)C[C@H](NC(=O)[C@H](CS)NC(=O)[C@H](CC(N)=O)NC(=O)CN)C(=O)N[C@@H](CCCCN)C(=O)N[C@@H](CO)C(=O)N1CCC[C@H]1C(=O)N[C@H](C(=O)O)[C@@H](C)O
# Protocol: as §1, §2, §3
# [10] = substrate: C[C@H](N)C(=O)N[C@@H](CO)C(=O)N[C@@H](CC(N)=O)C(=O)N[C@@H](CCCCN)C(=O)N[C@@H](CO)C(=O)N[C@@H](CCCCN)C(=O)N1CCC[C@H]1C(=O)N[C@@H](CCCCN)C(=O)O
# Protocol: as §1, §2, §3
# [11] = substrate: NCCCC[C@H](NC(=O)[C@@H]1CCCN1C(=O)[C@H](CCCCN)NC(=O)[C@H](CO)NC(=O)[C@H](CCCCN)NC(=O)[C@H](CC(N)=O)NC(=O)[C@H](CO)NC(=O)CN)C(=O)O
# Protocol: as §1, §2, §3
# [12] = substrate: CSCC[C@H](NC(=O)[C@@H](NC(=O)[C@H](CCC(=O)O)NC(=O)CN)[C@@H](C)O)C(=O)N[C@@H](CO)C(=O)N[C@@H](CCCCN)C(=O)N[C@@H](CCCNC(=N)N)C(=O)N[C@@H](CC(C)C)C(=O)O
# Protocol: as §1, §2, §3
# [13] = substrate: CC[C@H](C)[C@H](NC(=O)[C@@H](NC(=O)[C@H](CC(C)C)NC(=O)[C@H](CC(C)C)NC(=O)CN)[C@@H](C)O)C(=O)N[C@@H](CC(C)C)C(=O)N[C@@H](CCCCN)C(=O)N[C@@H](CCCCN)C(=O)O
# Protocol: as §1, §2, §3
# [14] = substrate: C[C@H](NC(=O)[C@@H]1CCCN1C(=O)CNC(=O)[C@H](CO)NC(=O)[C@H](CCC(N)=O)NC(=O)[C@H](CCCCN)NC(=O)[C@H](C)NC(=O)CN)C(=O)O
# Protocol: as §1, §2, §3
# [15] = substrate: N=C(N)NCCC[C@H](NC(=O)[C@H](CCCNC(=N)N)NC(=O)[C@H](CCCCN)NC(=O)[C@H](CO)NC(=O)[C@H](Cc1ccccc1)NC(=O)[C@H](Cc1ccccc1)NC(=O)[C@H](CS)NC(=O)CN)C(=O)O
# Protocol: as §1, §2, §3
# [16] = substrate: CC(C)[C@H](NC(=O)[C@H](CCCNC(=N)N)NC(=O)[C@H](CO)NC(=O)CN)C(=O)N[C@@H](CO)C(=O)N[C@@H](CCCNC(=N)N)C(=O)N[C@@H](CCC(=O)O)C(=O)N[C@@H](CC(=O)O)C(=O)O
# Protocol: as §1, §2, §3
# [17] = substrate: C[C@H](NC(=O)[C@H](CCCCN)NC(=O)[C@H](CO)NC(=O)[C@H](CO)NC(=O)[C@H](CCCCN)NC(=O)[C@H](CCCNC(=N)N)NC(=O)CN)C(=O)N[C@@H](CCCCN)C(=O)O
# Protocol: as §1, §2, §3
# [18] = substrate: CC(C)C[C@H](NC(=O)CN)C(=O)N[C@@H](CC(C)C)C(=O)N[C@@H](CC(=O)O)C(=O)N[C@@H](CCCNC(=N)N)C(=O)N[C@@H](CC(C)C)C(=O)N[C@@H](CO)C(=O)N[C@H](C(=O)O)C(C)C
# Protocol: as §1, §2, §3
# [19] = substrate: CC(C)C[C@H](NC(=O)CNC(=O)CN)C(=O)N[C@@H](Cc1ccccc1)C(=O)N[C@@H](CO)C(=O)N[C@@H](CCCNC(=N)N)C(=O)N[C@@H](Cc1c[nH]c2ccccc12)C(=O)N[C@@H](CCCNC(=N)N)C(=O)O
# Protocol: as §1, §2, §3
# [20] = substrate: CC(C)[C@H](NC(=O)[C@H](CS)NC(=O)CN)C(=O)N[C@@H](CCC(N)=O)C(=O)N[C@@H](CS)C(=O)N[C@@H](CCCCN)C(=O)N[C@@H](CC(=O)O)C(=O)N[C@@H](CCCCN)C(=O)O
# Protocol: as §1, §2, §3
# [21] = substrate: CC[C@H](C)[C@H](NC(=O)[C@H](CCCCN)NC(=O)[C@H](CO)NC(=O)[C@H](CC(C)C)NC(=O)[C@@H](NC(=O)[C@H](CCCCN)NC(=O)CN)C(C)C)C(=O)N[C@@H](Cc1ccccc1)C(=O)O
# Protocol: as §1, §2, §3
# [22] = substrate: C[C@H](NC(=O)[C@H](CCCCN)NC(=O)[C@H](CO)NC(=O)[C@H](CO)NC(=O)[C@H](CCC(N)=O)NC(=O)[C@H](CO)NC(=O)CN)C(=O)N1CCC[C@H]1C(=O)O
# Protocol: as §1, §2, §3
# [23] = substrate: CC(C)C[C@H](NC(=O)[C@H](Cc1c[nH]cn1)NC(=O)[C@H](C)NC(=O)CN)C(=O)N[C@H](C(=O)N[C@@H](CCCNC(=N)N)C(=O)N[C@@H](CCCNC(=N)N)C(=O)N[C@@H](Cc1ccc(O)cc1)C(=O)O)C(C)C
# Protocol: as §1, §2, §3
# [24] = substrate: CC(C)C[C@H](NC(=O)[C@H](C)NC(=O)[C@H](CO)NC(=O)[C@H](CC(N)=O)NC(=O)[C@H](CCC(=O)O)NC(=O)[C@H](CO)NC(=O)CN)C(=O)N[C@@H](CCCCN)C(=O)O
# Protocol: as §1, §2, §3
protein,measurement,setting,value
B1,Km,[1],0.5 µM
same,Vmax,[1],1.2 µM/min
same,Km,[2],15.7 µM
same,Vmax,[2],64.4 µM/min
same,Km,[3],22.5 µM
same,Vmax,[3],64.7 µM/min
same,Km,[4],15.7 µM
same,Vmax,[4],3.4 µM/min
same,Km,[5],14.4 µM
same,Vmax,[5],61 µM/min
same,Km,[6],38.4 µM
same,Vmax,[6],6.4 µM/min
same,Km,[7],1.4 µM
same,Vmax,[7],2 µM/min
same,Vmax,[8],2 µM/min
same,Km,[9],16.7 µM
same,Vmax,[9],61.1 µM/min
same,Vmax,[10],1 µM/min
same,Km,[11],14.3 µM
same,Vmax,[11],25.8 µM/min
same,Km,[12],13.0 µM
same,Vmax,[12],5.3 µM/min
same,Km,[13],0.4 µM
same,Vmax,[13],1.2 µM/min
same,Km,[14],2.0 µM
same,Vmax,[14],1.6 µM/min
same,Km,[15],13.6 µM
same,Vmax,[15],60.8 µM/min
same,Km,[16],79.2 µM
same,Vmax,[16],12.9 µM/min
same,Km,[17],1.2 µM
same,Vmax,[17],1.8 µM/min
same,Vmax,[18],1.8 µM/min
same,Km,[19],10.3 µM
same,Vmax,[19],21.9 µM/min
same,Km,[20],5.2 µM
same,Vmax,[20],54.9 µM/min
same,Km,[21],4.4 µM
same,Vmax,[21],13.6 µM/min
same,Km,[22],11.7 µM
same,Vmax,[22],6.6 µM/min
same,Km,[23],16.4 µM
same,Vmax,[23],2.8 µM/min
same,Km,[24],0.8 µM
same,Vmax,[24],1.7 µM/min
